Assay results published in paper PMC8141872 (The Journal of Biological Chemistry, 2021).

B2: Ras suppressor-1 (Rsu-1), wild type, full length (natural protein, human, UniProt Q15404 1-277, looked up)
chain: MSKSLKKLVEESREKNQPEVDMSDRGISNMLDVNGLFTLSHITQLVLSHNKLTMVPPNIAELKNLEVLNFFNNQIEELPTQISSLQKLKHLNLGMNRLNTLPRGFGSLPALEVLDLTYNNLSENSLPGNFFYLTTLRALYLSDNDFEILPPDIGKLTKLQILSLRDNDLISLPKEIGELTQLKELHIQGNRLTVLPPELGNLDLTGQKQVFKAENNPWVTPIADQFQLGVSHVFEYIRSETYKYLYGRHMQANPEPPKKNNDKSKKISRKPLAAKNR
notes: after thrombin cleavage a few of its residues probably remain (surmised); also called Rsu-1 (WT); Rsu-1 WT; not shown: His6, N-terminal, cleaved

Legend:
Conditions in all cases: both partners purified
[1] = target: T1, Kindlin-2 (residues 1-680) (human, UniProt Q96AC1 1-680); assay: SEC; Superose 6 10/300 GL; purified IPP heterotrimer mixed with purified Kindlin-2 and Rsu-1, 4 °C at least 2 h; 20 mM Tris pH 7.5, 150 mM NaCl, 5% glycerol, 0.2 mM TCEP; peak reloaded on the same column
T1 construct: human kindlin-2, residues 1-680; source: SUMO-tag cleaved by Ulp1
T1 sequence (looked up): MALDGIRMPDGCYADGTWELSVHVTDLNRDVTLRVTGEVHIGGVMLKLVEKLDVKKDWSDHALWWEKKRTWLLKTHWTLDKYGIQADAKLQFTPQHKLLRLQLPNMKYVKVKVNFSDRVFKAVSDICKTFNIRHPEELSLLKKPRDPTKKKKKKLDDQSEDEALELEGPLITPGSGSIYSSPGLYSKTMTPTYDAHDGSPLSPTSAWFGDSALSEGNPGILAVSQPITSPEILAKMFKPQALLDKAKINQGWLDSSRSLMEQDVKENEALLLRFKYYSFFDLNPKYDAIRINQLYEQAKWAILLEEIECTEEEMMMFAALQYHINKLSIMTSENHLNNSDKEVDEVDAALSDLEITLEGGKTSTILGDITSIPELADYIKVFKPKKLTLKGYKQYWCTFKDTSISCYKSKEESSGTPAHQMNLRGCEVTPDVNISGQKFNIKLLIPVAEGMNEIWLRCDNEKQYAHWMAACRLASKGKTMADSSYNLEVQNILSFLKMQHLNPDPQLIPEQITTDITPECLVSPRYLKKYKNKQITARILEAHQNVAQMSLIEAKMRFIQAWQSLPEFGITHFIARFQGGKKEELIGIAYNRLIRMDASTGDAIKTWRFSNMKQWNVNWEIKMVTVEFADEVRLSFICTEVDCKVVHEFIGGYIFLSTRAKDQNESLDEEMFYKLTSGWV

[2] = target: T2, PINCH-1 (residues 1-325), as subunit of the IPP complex (human, UniProt P48059 1-325); assay: as above
T2 construct: human PINCH-1, residues 1-325; Stood in the assay within the IPP complex; source: E. coli, co-expressed with ILK and α-parvin, purified as the IPP complex

[3] = target: B2; assay: BLI; BLItz; GST-fused PINCH protein or GST (0.05 mg/ml) loaded on anti-GST biosensor, Rsu-1 WT or mutant in the mobile phase; 20 mM Tris pH 7.5, 150 mM NaCl, 1 mg/ml BSA, 0.05% Tween-20; 1:1 global fit; at least three measurements

T2 sequence (P48059 whole entry, the tested form may be a part, one chain of several): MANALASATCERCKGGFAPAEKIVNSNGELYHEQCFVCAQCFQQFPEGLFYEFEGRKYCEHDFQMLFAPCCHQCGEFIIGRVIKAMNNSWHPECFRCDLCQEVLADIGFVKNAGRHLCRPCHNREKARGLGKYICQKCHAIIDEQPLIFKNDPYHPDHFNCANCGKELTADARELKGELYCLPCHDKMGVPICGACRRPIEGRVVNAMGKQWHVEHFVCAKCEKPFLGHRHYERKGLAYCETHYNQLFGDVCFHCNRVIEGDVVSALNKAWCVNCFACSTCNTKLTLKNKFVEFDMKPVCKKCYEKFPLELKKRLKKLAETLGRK

B1: Integrin-linked kinase (ILK, residues 1-452), as subunit of the IPP complex (natural protein, human, UniProt Q13418 1-452, looked up)
chain: MDDIFTQCREGNAVAVRLWLDNTENDLNQGDDHGFSPLHWACREGRSAVVEMLIMRGARINVMNRGDDTPLHLAASHGHRDIVQKLLQYKADINAVNEHGNVPLHYACFWGQDQVAEDLVANGALVSICNKYGEMPVDKAKAPLRELLRERAEKMGQNLNRIPYKDTFWKGTTRTRPRNGTLNKHSGIDFKQLNFLTKLNENHSGELWKGRWQGNDIVVKVLKVRDWSTRKSRDFNEECPRLRIFSHPNVLPVLGACQSPPAPHPTLITHWMPYGSLYNVLHEGTNFVVDQSQAVKFALDMARGMAFLHTLEPLIPRHALNSRSVMIDEDMTARISMADVKFSFQCPGRMYAPAWVAPEALQKKPEDTNRRSADMWSFAVLLWELVTREVPFADLSNMEIGMKVALEGLRPTIPPGISPHVCKLMKICMNEDPAKRPKFDMIVPILEKMQDK
notes: human integrin-linked kinase (ILK), residues 1-452; Stood in the assay within the IPP complex; source: E. coli, co-expressed with PINCH-1 and α-parvin, purified as the IPP complex
binding result [1]: binds

B2
binding result [2]: binds

B3: GST-fused PINCH-2 LIM5S domain (residues 254-330) (domain or fragment, human, UniProt Q7Z4I7 254-330, looked up)
chain: GDVCYNCSHVIEGDVVSALNKAWCVSCFSCSTCNSKLTLKNKFVEFDMKPVCKRCYEKFPLELKKRLKKLSELTSRK
notes: human PINCH-2 LIM5 domain without the C-terminal 11 residues, residues 254-330; Cloned in pGEX4T1; held on the anti-GST biosensor; also called PINCH-2 LIM5S domain (WT); PINCH-2 LIM5 short domain; source: E. coli Rosetta 2 (DE3), purified (GSTrap)
Kd [3]: 925 ± 194 nM
